Earlier results, collected in article PMC4188015.
Values belong to the substance of their own block, whether it stands above or below them.

Experiments:
[1] = molecular target: insulin receptor isoform A (Homo sapiens) (UniProt P06213)
[2] = molecular target: insulin receptor site 1 (Homo sapiens) (UniProt P06213)
[3] = molecular target: insulin receptor site 2 (Homo sapiens) (UniProt P06213)
[4] = molecular target: Human insulin (Homo sapiens) (UniProt P01308); test: ITC

Kd [1]: 0.004 µM
Substance: IGF-II (from UniProt P01344)

Kd [2]: 0.0064 µM
Kd [3]: 0.4 µM
Substance: insulin (from UniProt P01308)

Kd [4]: 8.81 µM
Substance: Human insulin (from UniProt P01308)
